Results taken from PMC6941230.

Biological target: T1, Rox1 (Saccharomyces cerevisiae, UniProt P25042 1-368)
T1 sequence: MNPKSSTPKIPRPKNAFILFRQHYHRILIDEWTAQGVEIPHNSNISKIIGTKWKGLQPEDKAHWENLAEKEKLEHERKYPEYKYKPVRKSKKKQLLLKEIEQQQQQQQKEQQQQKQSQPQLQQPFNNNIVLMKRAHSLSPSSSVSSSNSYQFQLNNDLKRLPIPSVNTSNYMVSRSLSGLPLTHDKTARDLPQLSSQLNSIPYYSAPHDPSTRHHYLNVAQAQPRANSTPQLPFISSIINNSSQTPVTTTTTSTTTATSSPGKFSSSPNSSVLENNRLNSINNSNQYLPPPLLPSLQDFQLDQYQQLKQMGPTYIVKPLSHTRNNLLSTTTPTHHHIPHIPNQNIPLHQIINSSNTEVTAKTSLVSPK
Assay: EMSA

B1: HMG6bp (dsDNA)
DNA 1: TGATTGTCAATTTAGTTAATCATTGTTATTAATAAAGGAAAGATATAAAA
DNA 2: TTTTATATCTTTCCTTTATTAATAACAATGATTAACTAAATTGACAATCA
Question: Does B1 bind?
Answer: Result: binds
